Data taken from patent US20130183306A1 (INTERNATIONAL DRUG DEVELOPMENT BIOTECH, published 2013).

Target: T1, human complement C1q (from natural human complement serum) (human, UniProt P02745 23-245; P02746 28-253; P02747 29-245)
T1 construct: Whole human complement serum was added to the coated MAb; also called complement human serum
Assay: ELISA, MAb coated on the plate, natural human complement added, detection with anti-human C1q peroxidase conjugate
Protocol: The binding of human complement serum to MAbs was assessed by an ELISA binding assay. The 96-well plates (Nunc) were coated overnight at 4° C. with varying MAb concentrations. After washing, the plates were blocked with PBS-5% BSA for 1 h, and incubated for 1 h with 2.5 μl/well of natural human complement (Sigma). Then, 100 μl/well of a 1/500 dilution of sheep anti-human C1q peroxidase-conjugated Ab (Abd Serotec) added and incubated for 1h. The plates were developed with 100 μl per well of TMB substrate (Uptima Interchim). After H₂SO₄ addition, the OD was measured at 450 nm/630 nm using a MRX II microplate reader. Data represent mean+/−SD of two independent experiments.

T1 sequence (P02745 23-245 limits assumed, chain 1 of 3): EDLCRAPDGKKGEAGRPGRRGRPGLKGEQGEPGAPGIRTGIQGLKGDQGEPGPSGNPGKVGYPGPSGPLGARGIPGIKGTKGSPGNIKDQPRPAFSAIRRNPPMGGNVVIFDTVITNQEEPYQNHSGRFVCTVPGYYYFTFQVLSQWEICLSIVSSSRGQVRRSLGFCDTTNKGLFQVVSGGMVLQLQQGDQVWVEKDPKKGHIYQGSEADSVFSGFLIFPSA
T1 sequence (P02746 28-253 limits assumed, chain 2 of 3): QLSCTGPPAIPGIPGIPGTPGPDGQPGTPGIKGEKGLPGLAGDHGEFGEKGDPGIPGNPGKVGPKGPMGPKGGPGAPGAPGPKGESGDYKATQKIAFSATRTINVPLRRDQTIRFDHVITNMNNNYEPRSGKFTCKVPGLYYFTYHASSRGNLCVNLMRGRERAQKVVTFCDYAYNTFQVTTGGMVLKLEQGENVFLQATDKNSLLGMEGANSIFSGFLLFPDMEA
T1 sequence (P02747 29-245 limits assumed, chain 3 of 3): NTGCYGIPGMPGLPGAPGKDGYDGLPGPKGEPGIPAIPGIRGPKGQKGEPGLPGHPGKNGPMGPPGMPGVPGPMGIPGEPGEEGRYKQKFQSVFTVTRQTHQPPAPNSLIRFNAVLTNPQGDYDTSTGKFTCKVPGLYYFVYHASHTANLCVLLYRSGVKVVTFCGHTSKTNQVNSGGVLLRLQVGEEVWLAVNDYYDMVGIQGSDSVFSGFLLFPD

binding result: binds
B1: chR005-1 Fc24 (antibody, human IgG1, name in EU numbering)
heavy: QVQLQQSGAELVRPGSSVKISCKASGYAFSSYWVNWMKQRPGQGLEWIGQIYPGDGDTNYNGKFKGRATVTADKSSSTSYMQFSSLTSEDSAVYFCARSITTVVGCAMDYWGQGTSVTVSSASTKGPSVFPLAPSSKSTSGGTAALGCLVKDYFPEPVTVSWNSGALTSGVHTFPAVLQSSGLYSLSSVVTVPSSSLGTQTYICNVNHKPSNTKVDKKVEPKSCDKTHTCPPCPAPELLGGPSVFLLPPKPKDTLMISRTPEVTCVVVDVSHEDPEVKFNWYVDGVEVHNAKTKPPEEQYNSTLRVVSLLTVLHQDWLNGKEYKCKVSNAALPAPIAKTISKAKGQPREPQVYTLPPSRDELTKNQVSLTCLVKGFYPSDIAVEWESNGQPENNYKTTPLVLDSDGSFFLYSKLTVDKSRWQQGNVFSCSVMHEALHNHYTQKSLSLSPGK
light: DIQMTQSSAYLSVSLGGRVTITCKASDHINNWLAWYQHKPGNAPRLLISGATTLETGVPSRFSGSGSGKDYTLSITSLQTEDVATYYCQQSWNTPWTFGGGTK
notes: also called chR005-1 MAb Fc24 optimized variant; not shown: human light chain constant region
